Among the data in publication doi:10.1101/2023.07.20.549950 are Kd values, retold here.

Assay in all cases: filter binding
The target of data set [1] is T1, RBM15 RRM3 (UniProt Q96T37 455-529).
T1 sequence: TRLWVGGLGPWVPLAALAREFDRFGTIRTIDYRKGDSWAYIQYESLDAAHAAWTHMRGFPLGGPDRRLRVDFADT

In data set [2] the target is T2, RBM15 RRM12 (UniProt Q96T37 170-451).
T2 sequence: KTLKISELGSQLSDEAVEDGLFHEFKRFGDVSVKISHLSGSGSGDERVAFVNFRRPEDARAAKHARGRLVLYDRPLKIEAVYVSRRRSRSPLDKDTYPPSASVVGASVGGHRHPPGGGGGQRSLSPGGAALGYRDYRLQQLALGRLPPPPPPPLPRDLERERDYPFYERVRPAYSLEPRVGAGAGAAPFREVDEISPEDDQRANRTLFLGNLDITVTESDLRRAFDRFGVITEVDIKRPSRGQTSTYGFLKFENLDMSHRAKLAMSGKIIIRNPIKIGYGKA

For data set [3], the target named is T3, RBM15 RRM123 (UniProt Q96T37 170-529).
T3 sequence: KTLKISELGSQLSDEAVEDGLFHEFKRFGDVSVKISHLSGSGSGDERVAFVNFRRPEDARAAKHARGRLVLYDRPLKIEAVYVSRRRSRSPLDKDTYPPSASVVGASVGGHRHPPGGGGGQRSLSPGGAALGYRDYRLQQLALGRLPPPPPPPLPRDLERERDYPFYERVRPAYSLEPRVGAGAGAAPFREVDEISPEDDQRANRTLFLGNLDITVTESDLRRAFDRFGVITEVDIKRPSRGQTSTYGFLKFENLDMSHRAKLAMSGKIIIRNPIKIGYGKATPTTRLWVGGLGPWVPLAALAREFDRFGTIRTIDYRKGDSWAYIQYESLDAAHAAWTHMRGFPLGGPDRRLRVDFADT

The target in data set [4] is T4, RBM15 RRM23 (UniProt Q96T37 374-529).
T4 sequence: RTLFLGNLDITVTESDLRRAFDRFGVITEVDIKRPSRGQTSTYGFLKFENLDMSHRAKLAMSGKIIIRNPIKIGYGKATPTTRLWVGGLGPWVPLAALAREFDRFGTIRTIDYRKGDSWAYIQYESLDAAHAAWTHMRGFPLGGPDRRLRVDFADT

The target of data set [5] is T5, RBM15 RRM1 (UniProt Q96T37 170-252).
T5 sequence: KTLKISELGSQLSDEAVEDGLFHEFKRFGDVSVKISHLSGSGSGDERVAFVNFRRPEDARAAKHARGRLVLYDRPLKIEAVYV

As to GGCCAACACUCUGGCCCAUCGGGGUGACGGCC (structured_RNA) [XIST A-repeat stem-loop (32nt)], the equilibrium dissociation constant (Kd) (commonly the free concentration of one partner at which half of the binding sites on the other are occupied at equilibrium, for simple one-to-one binding) in data set [1] is ~100 nM; in data set [2] it was 71 nM; in data set [3] it was 79 nM; in data set [4], 50 nM; in data set [5] it was 433 nM.

Consider GGUUCUUGAAAAGAGGACC (structured_RNA) [FIRRE RRD stem-loop (19nt)], for which the dissociation constant (Kd) was ~100 nM in data set [1]; 184 nM in data set [2]; ~100 nM in data set [3]; 99 nM in data set [4]; 370 nM in data set [5].
